Laboratory results from US20180305449A1 (ONCOMED PHARMACEUTICALS, published 2018).
Read-outs that look alike come from different tables or passages of the source.

Tests used:
[1] = target: T1, Recombinant human DLL4-Fc (human, UniProt Q9NR61 27-522, limits assumed); test: SPR (Biacore 2000), human DLL4-Fc amine-coupled on CM5 chip, antibody as analyte
T1 construct: also called hDLL4; hDLL4-Fc; not shown: Fc portion
Description: (§1) The KDs of parental antibodies anti-VEGF 219R45 (IgG format), anti-DLL4 21R79 (IgG format), anti-DLL4 21M18 (IgG format) and bispecific antibodies 219R45-MB-21M18 and 219R45-MB-21R79 were determined using a Biacore 2000 system from Biacore LifeSciences (GE Healthcare). Recombinant human DLL4-Fc or mouse DLL4-Fc proteins were immobilized on CM5 carboxyl chips using standard amine-based chemistry (NHS/EDC) and blocked with ethanolamine Recombinant human VEGF₁₆₅ or mouse VEGF₁₆₅ were biotinylated and immobilized on streptavidin chips. The antibodies were serially diluted 2-fold from 100 nM to 0.78 nM in HBS-P (0.01M HEPES pH7.4, 0.15M NaCl, 0.005% v/v Polysorbate 20). For each antibody, all 8 dilutions were sequentially injected over a specific chip. Kinetic data were collected over time and were fit using the simultaneous global fit equation to yield affinity constants (KD values) for each bispecific antibody.
Several additional anti-DLL4 antibodies were identified that had binding affinities intermediate to the KDs of 21M18 and 21R79. Two of these anti-DLL4 antibodies were used to produce anti-VEGF/anti-DLL4 bispecific antibodies 219R45-MB-21R75 and 219R45-MB-21R83. Using the Biacore 2000 system as described above, the KDs of the bispecific antibodies 219R45-MB-21R75 and 219R45-MB-21R83 to human DLL4 were determined.

biotin-DLL4-hFc [2] = target: T2, biotin-DLL4-hFc (UniProt Q9NR61 27-522, limits assumed, biotinylated (site not stated)); test: bispecific sandwich ELISA: antibody pre-incubated with 2 ug/ml biotin-DLL4-hFc, captured on VEGF-coated plate, detected with streptavidin-HRP
T2 construct: not shown: human Fc (hFc)
Description: (§2) FIG. 7. Bispecific antibody ELISA. Bispecific antibodies 219R45-MB-21M18, 219R45-MB-21R79, 219R45-MB-21R75, and 219R45-MB-21R83 were diluted in blocking buffer (lx PBS, 0.1% gelatin, 0.1% Polysorbate-20, pH 7.4) containing 2 μg/ml biotin-DLL4-hFc. The antibodies were serially diluted 3-fold from 500 ng/ml to 0.008 ng/ml. The antibody samples were incubated for 2 hours in blocking buffer containing the biotin-DLL4-hFc. After incubation, the antibody samples were transferred to a VEGF-coated assay plate (100 ul/well) and incubated for 2 hours. Streptavidin-HRP was added to each well and incubated for 1 hr. TMB substrate was added to the wells with a 10 minute color development and the reaction was stopped with 2M sulfuric acid. Absorbance was read at 450-650 nm and the data analyzed using the 4-parameter fit within the Softmax Pro analysis program.
as §2, with “VEGF (ATGEN, South Korea) was coated onto Nunc maxisorb plates at 2 ug/ml (100 μl/well) and incubated overnight at 2-8° C. Bispecific” for “FIG. 7. Bispecific antibody ELISA. Bispecific”, “to the” for “to a”, “Streptavidin-HRP (Jackson ImmunoResearch, West Grove, Pa.)” for “Streptavidin-HRP”, “analysis program (Molecular Devices, Sunnyvale, Calif.).” for “analysis program.”

biotin-DLL4-hFc [3] = target: T2, biotin-DLL4-hFc; test: Bispecific bridging ELISA: antibody pre-incubated with biotin-DLL4-hFc, captured on VEGF (ATGEN)-coated plate, streptavidin-HRP; potency relative to a reference anti-VEGF/anti-DLL4 bispecific antibody
Description: as §2, with “VEGF (ATGEN, South Korea) was coated onto Nunc maxisorb plates at 2 ug/ml (100 μl/well) and incubated overnight at 2-8° C. Bispecific” for “FIG. 7. Bispecific antibody ELISA. Bispecific”, “to the” for “to a”, “Streptavidin-HRP (Jackson ImmunoResearch, West Grove, Pa.)” for “Streptavidin-HRP”, “analysis program (Molecular Devices, Sunnyvale, Calif.).” for “analysis program.”

[4] = target: T1, Recombinant human DLL4-Fc; test: SPR (Biacore 2000), human DLL4-Fc amine-coupled on CM5 chip, antibody as analyte; remark: listed apart in the source
Description: as §1

[5] = target: T3, Recombinant human VEGF165 (human, UniProt P15692-4 27-191); test: SPR (Biacore 2000), biotinylated human VEGF165 on streptavidin chip, antibody as analyte
T3 construct: also called hVEGF; hVEGF165
Description: as §1

[6] = target: T4, Recombinant mouse VEGF165 (mouse, UniProt Q00731-2 27-190); test: SPR (Biacore 2000), biotinylated mouse VEGF165 on streptavidin chip, antibody as analyte
T4 construct: also called mVEGF
T4 sequence (looked up): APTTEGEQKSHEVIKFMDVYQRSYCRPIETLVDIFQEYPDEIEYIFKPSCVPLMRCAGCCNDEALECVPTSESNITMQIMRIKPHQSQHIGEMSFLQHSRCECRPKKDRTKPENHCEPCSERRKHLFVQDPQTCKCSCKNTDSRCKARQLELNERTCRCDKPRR
Description: as §1

T1 sequence (Q9NR61 27-522 limits assumed): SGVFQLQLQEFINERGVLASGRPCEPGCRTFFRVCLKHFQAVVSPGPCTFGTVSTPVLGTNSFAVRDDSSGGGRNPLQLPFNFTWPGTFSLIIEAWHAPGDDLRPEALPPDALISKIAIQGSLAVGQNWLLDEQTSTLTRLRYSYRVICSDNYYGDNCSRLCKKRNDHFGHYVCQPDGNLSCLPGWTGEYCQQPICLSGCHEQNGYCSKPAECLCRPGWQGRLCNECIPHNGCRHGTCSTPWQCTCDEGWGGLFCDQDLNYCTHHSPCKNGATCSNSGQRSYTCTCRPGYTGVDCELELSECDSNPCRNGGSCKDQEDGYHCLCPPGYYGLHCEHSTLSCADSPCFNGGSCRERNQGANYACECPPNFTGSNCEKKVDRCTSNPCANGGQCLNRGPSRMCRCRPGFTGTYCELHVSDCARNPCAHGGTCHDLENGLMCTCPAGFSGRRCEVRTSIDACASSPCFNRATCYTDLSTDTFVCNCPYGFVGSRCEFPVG
T2 sequence (Q9NR61 27-522 limits assumed): as above

B1: anti-VEGF/anti-DLL4 bispecific antibody 219R45-MB-21R83 (bispecific antibody, human IgG2)
heavy 1: QVQLVQSGAEVKKPGASVKVSCKASGYTFTNYWMHWVRQAPGQGLEWMGDINPSNGRTSYKEKFKRRVTLSVDKSSSTAYMELSSLRSEDTAVYFCTIHYDDKYYPLMDYWGQGTLVTVSSASTKGPSVFPLAPCSRSTSESTAALGCLVKDYFPEPVTVSWNSGALTSGVHTFPAVLQSSGLYSLSSVVTVPSSNFGTQTYTCNVDHKPSNTKVDKTVERKCCVECPPCPAPPVAGPSVFLFPPKPKDTLMISRTPEVTCVVVDVSHEDPEVQFNWYVDGVEVHNAKTKPREEQFNSTFRVVSVLTVVHQDWLNGKEYKCKVSNKGLPAPIEKTISKTKGQPREPQVYTLPPSREKMTKNQVSLTCLVKGFYPSDIAVEWESNGQPENNYKTTPPMLKSDGSFFLYSKLTVDKSRWQQGNVFSCSVMHEALHNHYTQKSLSLSPGK
heavy 2: QVQLVQSGAEVKKPGASVKISCKASGYSFTAYYIHWVKQAPGQGLEWIGYISNYNRATNYNQKFKGRVTFTTDTSTSTAYMELRSLRSDDTAVYYCARDYDYDVGMDYWGQGTLVTVSSASTKGPSVFPLAPCSRSTSESTAALGCLVKDYFPEPVTVSWNSGALTSGVHTFPAVLQSSGLYSLSSVVTVPSSNFGTQTYTCNVDHKPSNTKVDKTVERKCCVECPPCPAPPVAGPSVFLFPPKPKDTLMISRTPEVTCVVVDVSHEDPEVQFNWYVDGVEVHNAKTKPREEQFNSTFRVVSVLTVVHQDWLNGKEYKCKVSNKGLPAPIEKTISKTKGQPREPQVYTLPPSREEMTKNQVSLTCLVEGFYPSDIAVEWESNGQPENNYKTTPPMLDSDGSFFLYSELTVDKSRWQQGNVFSCSVMHEALHNHYTQKSLSLSPGK
light: DIVMTQSPDSLAVSLGERATISCRASESVDNYGISFMKWFQQKPGQPPKLLIYAASNQGSGVPDRFSGSGSGTDFTLTISSLQAEDVAVYYCQQSKEVPWTFGGGTKVEIKRTVAAPSVIFPPSDEQLKSGTASVVCLLNNFYPREAKVQWKVDNALQSGNSQESVTEQDSKDSTYSLSSTLTLSKADYEKHKVYACEVTHQGLSSPVTKSFNRGEC
notes: Monovalent/bispecific IgG2 heterodimer with charge-modified CH3 domains and two identical light chains
B1 was tested, and the Kd [1] was 1.3 nM, the “EC50 (read off the curve)” value (biotin-DLL4-hFc [2]) was ~1 ng/mL and the “Relative Potency (%)” value (biotin-DLL4-hFc [3]) was 222%.

B2: anti-VEGF/anti-DLL4 bispecific antibody 219R45-MB-21M18 (bispecific antibody, human IgG2)
heavy 1: QVQLVQSGAEVKKPGASVKVSCKASGYTFTNYWMHWVRQAPGQGLEWMGDINPSNGRTSYKEKFKRRVTLSVDKSSSTAYMELSSLRSEDTAVYFCTIHYDDKYYPLMDYWGQGTLVTVSSASTKGPSVFPLAPCSRSTSESTAALGCLVKDYFPEPVTVSWNSGALTSGVHTFPAVLQSSGLYSLSSVVTVPSSNFGTQTYTCNVDHKPSNTKVDKTVERKCCVECPPCPAPPVAGPSVFLFPPKPKDTLMISRTPEVTCVVVDVSHEDPEVQFNWYVDGVEVHNAKTKPREEQFNSTFRVVSVLTVVHQDWLNGKEYKCKVSNKGLPAPIEKTISKTKGQPREPQVYTLPPSREKMTKNQVSLTCLVKGFYPSDIAVEWESNGQPENNYKTTPPMLKSDGSFFLYSKLTVDKSRWQQGNVFSCSVMHEALHNHYTQKSLSLSPGK
heavy 2: QVQLVQSGAEVKKPGASVKISCKASGYSFTAYYIHWVKQAPGQGLEWIGYISSYNGATNYNQKFKGRVTFTTDTSTSTAYMELRSLRSDDTAVYYCARDYDYDVGMDYWGQGTLVTVSSASTKGPSVFPLAPCSRSTSESTAALGCLVKDYFPEPVTVSWNSGALTSGVHTFPAVLQSSGLYSLSSVVTVPSSNFGTQTYTCNVDHKPSNTKVDKTVERKCCVECPPCPAPPVAGPSVFLFPPKPKDTLMISRTPEVTCVVVDVSHEDPEVQFNWYVDGVEVHNAKTKPREEQFNSTFRVVSVLTVVHQDWLNGKEYKCKVSNKGLPAPIEKTISKTKGQPREPQVYTLPPSREEMTKNQVSLTCLVEGFYPSDIAVEWESNGQPENNYKTTPPMLDSDGSFFLYSELTVDKSRWQQGNVFSCSVMHEALHNHYTQKSLSLSPGK
light: DIVMTQSPDSLAVSLGERATISCRASESVDNYGISFMKWFQQKPGQPPKLLIYAASNQGSGVPDRFSGSGSGTDFTLTISSLQAEDVAVYYCQQSKEVPWTFGGGTKVEIKRTVAAPSVIFPPSDEQLKSGTASVVCLLNNFYPREAKVQWKVDNALQSGNSQESVTEQDSKDSTYSLSSTLTLSKADYEKHKVYACEVTHQGLSSPVTKSFNRGEC
notes: Monovalent/bispecific (MB) IgG2 heterodimer with charge-modified CH3 domains and two identical light chains
Work on B2 yielded a Kd [4] of 16 nM, a Kd [1] of 16 nM and a Kd [5] of 0.36 nM. The Kd [6] was 25.5 nM, the “EC50 (read off the curve)” value (biotin-DLL4-hFc [2]) was ~5 ng/mL and the “Relative Potency (%)” value (biotin-DLL4-hFc [3]) was 67%.

B3: anti-VEGF/anti-DLL4 bispecific antibody 219R45-MB-21R75 (bispecific antibody, human IgG2)
heavy 1: QVQLVQSGAEVKKPGASVKVSCKASGYTFTNYWMHWVRQAPGQGLEWMGDINPSNGRTSYKEKFKRRVTLSVDKSSSTAYMELSSLRSEDTAVYFCTIHYDDKYYPLMDYWGQGTLVTVSSASTKGPSVFPLAPCSRSTSESTAALGCLVKDYFPEPVTVSWNSGALTSGVHTFPAVLQSSGLYSLSSVVTVPSSNFGTQTYTCNVDHKPSNTKVDKTVERKCCVECPPCPAPPVAGPSVFLFPPKPKDTLMISRTPEVTCVVVDVSHEDPEVQFNWYVDGVEVHNAKTKPREEQFNSTFRVVSVLTVVHQDWLNGKEYKCKVSNKGLPAPIEKTISKTKGQPREPQVYTLPPSREKMTKNQVSLTCLVKGFYPSDIAVEWESNGQPENNYKTTPPMLKSDGSFFLYSKLTVDKSRWQQGNVFSCSVMHEALHNHYTQKSLSLSPGK
heavy 2: QVQLVQSGAEVKKPGASVKISCKASGYSFTAYYIHWVKQAPGQGLEWIGYIAGYKDATNYNQKFKGRVTFTTDTSTSTAYMELRSLRSDDTAVYYCARDYDYDVGMDYWGQGTLVTVSSASTKGPSVFPLAPCSRSTSESTAALGCLVKDYFPEPVTVSWNSGALTSGVHTFPAVLQSSGLYSLSSVVTVPSSNFGTQTYTCNVDHKPSNTKVDKTVERKCCVECPPCPAPPVAGPSVFLFPPKPKDTLMISRTPEVTCVVVDVSHEDPEVQFNWYVDGVEVHNAKTKPREEQFNSTFRVVSVLTVVHQDWLNGKEYKCKVSNKGLPAPIEKTISKTKGQPREPQVYTLPPSREEMTKNQVSLTCLVEGFYPSDIAVEWESNGQPENNYKTTPPMLDSDGSFFLYSELTVDKSRWQQGNVFSCSVMHEALHNHYTQKSLSLSPGK
light: DIVMTQSPDSLAVSLGERATISCRASESVDNYGISFMKWFQQKPGQPPKLLIYAASNQGSGVPDRFSGSGSGTDFTLTISSLQAEDVAVYYCQQSKEVPWTFGGGTKVEIKRTVAAPSVIFPPSDEQLKSGTASVVCLLNNFYPREAKVQWKVDNALQSGNSQESVTEQDSKDSTYSLSSTLTLSKADYEKHKVYACEVTHQGLSSPVTKSFNRGEC
notes: as for B1
B3 was tested, and the Kd [1] was 5.1 nM, the “EC50 (read off the curve)” value (biotin-DLL4-hFc [2]) was ~0.8 ng/mL and the “Relative Potency (%)” value (biotin-DLL4-hFc [3]) was 422%.
